Data from patent US20250281611A1 (BIOSCEPTRE AUST, published 2025).

T1: CD19 (UniProt P15391 20-556, limits assumed)
T1 construct: whole, on cells; also called CD19 on JeKo-1
T1 sequence (looked up): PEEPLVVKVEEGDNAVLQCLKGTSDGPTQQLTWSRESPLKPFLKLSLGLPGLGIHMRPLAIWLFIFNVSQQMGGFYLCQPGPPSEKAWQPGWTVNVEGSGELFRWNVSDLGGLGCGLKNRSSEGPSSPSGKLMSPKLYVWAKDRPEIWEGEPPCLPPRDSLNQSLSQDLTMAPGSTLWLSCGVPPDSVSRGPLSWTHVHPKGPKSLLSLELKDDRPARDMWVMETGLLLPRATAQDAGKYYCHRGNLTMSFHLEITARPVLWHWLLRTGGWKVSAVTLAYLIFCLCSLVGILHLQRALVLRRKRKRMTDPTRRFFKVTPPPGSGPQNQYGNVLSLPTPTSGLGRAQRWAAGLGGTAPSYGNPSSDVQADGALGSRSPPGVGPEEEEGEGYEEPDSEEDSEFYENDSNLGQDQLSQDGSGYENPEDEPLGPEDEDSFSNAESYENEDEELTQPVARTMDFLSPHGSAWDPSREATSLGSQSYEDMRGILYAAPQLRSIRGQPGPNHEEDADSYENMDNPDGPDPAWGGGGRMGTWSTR

B1: CD19 BRIDGE variant B17 (Fab)
heavy: EVQLVESGGGLVKPGGSLKLSCAASGYTFTSYVMHWVRQAPGKGLEWIGYINPYNDGTKYNEKFQGRVTISSDKSISTAYMELSSLRSEDTAMYYCARGTYYYGTRVFDYWGQGTLVTVSSASTKGPSVFPLAPSSKSTSGGTAALGCLVKDYFPEPVTVSWNSGALTSGVHTFPAVLQSSGLYSLSSVVTVPSSSLGTQTYICNVNHKPSNTKVDKKVEPKSCHHHHHH
light: GHNYTTRNILPGLNITSTFHKTSGSGKGSEPKSSDKTHTGGGGSDIVMTQSPATLSLSPGERATLSCRSSKSLQNVNGNTYLYWFQQKPGQSPQLLIYRMSNLNSGVPDRFSGSGSGTEFTLTISSLEPEDFAVYYCMQHLEYPITFGAGTKLEIKRTVAAPSVFIFPPSDEQLKSGTASVVCLLNNFYPREAKVQWKVDNALQSGNSQESVTEQDSKDSTYSLSSTLTLSKADYEKHKVYACEVTHQGLSSPVTKSFNRGEC
B2: CD19 BRIDGE variant B24 (Fab)
heavy: B1 heavy
light: DFPGHNYTTRNILPGLNITSTFHKTSGSGKGGGGSEPKSSDKTHTDIVMTQSPATLSLSPGERATLSCRSSKSLQNVNGNTYLYWFQQKPGQSPQLLIYRMSNLNSGVPDRFSGSGSGTEFTLTISSLEPEDFAVYYCMQHLEYPITFGAGTKLEIKRTVAAPSVFIFPPSDEQLKSGTASVVCLLNNFYPREAKVQWKVDNALQSGNSQESVTEQDSKDSTYSLSSTLTLSKADYEKHKVYACEVTHQGLSSPVTKSFNRGEC
B3: CD19 BRIDGE variant B23 (Fab)
heavy: B1 heavy
light: DFPGHNYTTRNILPGLNITSTFHKTSGSGKGSEPKSSDKTHTDIVMTQSPATLSLSPGERATLSCRSSKSLQNVNGNTYLYWFQQKPGQSPQLLIYRMSNLNSGVPDRFSGSGSGTEFTLTISSLEPEDFAVYYCMQHLEYPITFGAGTKLEIKRTVAAPSVFIFPPSDEQLKSGTASVVCLLNNFYPREAKVQWKVDNALQSGNSQESVTEQDSKDSTYSLSSTLTLSKADYEKHKVYACEVTHQGLSSPVTKSFNRGEC
B4: CD19 BRIDGE variant B21 (Fab)
heavy: B1 heavy
light: DFPGHNYTTRNILPGLNITSGGGGSEPKSSDKTHTDIVMTQSPATLSLSPGERATLSCRSSKSLQNVNGNTYLYWFQQKPGQSPQLLIYRMSNLNSGVPDRFSGSGSGTEFTLTISSLEPEDFAVYYCMQHLEYPITFGAGTKLEIKRTVAAPSVFIFPPSDEQLKSGTASVVCLLNNFYPREAKVQWKVDNALQSGNSQESVTEQDSKDSTYSLSSTLTLSKADYEKHKVYACEVTHQGLSSPVTKSFNRGEC
B5: CD19 BRIDGE variant B22 (Fab)
heavy: B1 heavy
light: DFPGHNYTTRNILPGLNITSTFHKTSGSGKEPKSSDKTHTDIVMTQSPATLSLSPGERATLSCRSSKSLQNVNGNTYLYWFQQKPGQSPQLLIYRMSNLNSGVPDRFSGSGSGTEFTLTISSLEPEDFAVYYCMQHLEYPITFGAGTKLEIKRTVAAPSVFIFPPSDEQLKSGTASVVCLLNNFYPREAKVQWKVDNALQSGNSQESVTEQDSKDSTYSLSSTLTLSKADYEKHKVYACEVTHQGLSSPVTKSFNRGEC
B6: CD19 BRIDGE variant B18 (Fab)
heavy: B1 heavy
light: GHNYTTRNILPGLNITSTFHKTSGSGKGGGGSEPKSSDKTHTGGGGSDIVMTQSPATLSLSPGERATLSCRSSKSLQNVNGNTYLYWFQQKPGQSPQLLIYRMSNLNSGVPDRFSGSGSGTEFTLTISSLEPEDFAVYYCMQHLEYPITFGAGTKLEIKRTVAAPSVFIFPPSDEQLKSGTASVVCLLNNFYPREAKVQWKVDNALQSGNSQESVTEQDSKDSTYSLSSTLTLSKADYEKHKVYACEVTHQGLSSPVTKSFNRGEC
B7: CD19 BRIDGE variant B28 (Fab)
heavy: B1 heavy
light: DFPGHNYTTRNILPGLNITSTFHKTSGSGKEPKSSDKTHTGSDIVMTQSPATLSLSPGERATLSCRSSKSLQNVNGNTYLYWFQQKPGQSPQLLIYRMSNLNSGVPDRFSGSGSGTEFTLTISSLEPEDFAVYYCMQHLEYPITFGAGTKLEIKRTVAAPSVFIFPPSDEQLKSGTASVVCLLNNFYPREAKVQWKVDNALQSGNSQESVTEQDSKDSTYSLSSTLTLSKADYEKHKVYACEVTHQGLSSPVTKSFNRGEC
B8: CD19 BRIDGE variant B19 (Fab, V domains shown)
VH: EVQLVESGGGLVKPGGSLKLSCAASGYTFTSYVMHWVRQAPGKGLEWIGYINPYNDGTKYNEKFQGRVTISSDKSISTAYMELSSLRSEDTAMYYCARGTYYYGTRVFDYWGQGTLVTVSS
VL: DIVMTQSPATLSLSPGERATLSCRSSKSLQNVNGNTYLYWFQQKPGQSPQLLIYRMSNLNSGVPDRFSGSGSGTEFTLTISSLEPEDFAVYYCMQHLEYPITFGAGTKLEIKR
B9: CD19 BRIDGE variant B20 (Fab, V domains shown)
VH: B8 VH
VL: B8 VL
B10: CD19 BRIDGE variant B25 (Fab, V domains shown)
VH: B8 VH
VL: B8 VL

target: T2, nfP2X7 CAR 1; assay: flow cytometry, nfP2X7 CAR 1 T cells (EGFR+ gate), anti-His-FITC detection
T2 construct: CAR-positive cells gated by the co-expressed EGFR marker; also called nfP2X7 targeted CAR; nfP2X7 CAR on EGFR+ T cells
Description: (§1) nfP2X₇ CAR T cells were incubated with different BRiDGE variants at saturating concentrations. […] The MFI intensity correlates with the number of secondary bound antibodies bound to the BRiDGEs that are only detected if they are bound to the CAR T cells. EGFR was used as a marker gene to detect the CAR expression. Thus, the EGFR+ T cell population was defined as the CAR expressing cells and the EGFR− T cell population was defined as the CAR negative subset. MFI: median fluorescence intensity. EGFR: epidermal growth factor receptor. BLItz: Bio-Layer interferometry (BLI) technology using HIS-tag identification tips. HIS-tag MFI Ratio: relative index that is calculated by the testing condition MFI divided by the control MFI, which corresponds to the MFI measured on EGFR+ T cells (defined as CAR positive cells) divided by the MFI measured on the EGFR− T cells (defined as CAR negative cells). […] The higher the MFIR, the stronger the binding.

Row | MFI HisTag FITC in EGFR+ Population | Binder
1 | 2.25 | B1
2 | 2.13 | B2
3 | 2.34 | B3
4 | 2.19 | B4
5 | 2.21 | B5
6 | 2.25 | B6
7 | 2.24 | B7
8 | 2.16 | B8
9 | 2.11 | B9
10 | 2.28 | B10

target: T2, nfP2X7 CAR 1; assay: flow cytometry, anti-His-FITC, MFI on EGFR+ (CAR+) over EGFR- (CAR-) T cells
Description: as §1

Row | HisTag MFI Ratio of EGFR+/EGFR- | Binder
11 | 4.2 | B1
12 | 3.9 | B2
13 | 4.4 | B3
14 | 4.1 | B4
15 | 4 | B5
16 | 4.2 | B6
17 | 4.2 | B7
18 | 4.1 | B8
19 | 4.1 | B9
20 | 4 | B10

target: T2, nfP2X7 CAR 1; assay: flow cytometry, anti-His-FITC, MFI on EGFR+ (CAR+) T cells over background 0.44
Description: as §1

Row | HisTag MFI Ratio (background 0.44) | Binder
21 | 5.1 | B1
22 | 4.8 | B2
23 | 5.3 | B3
24 | 5 | B4
25 | 5 | B5
26 | 5.1 | B6
27 | 5.1 | B7
28 | 4.9 | B8
29 | 4.8 | B9
30 | 5.2 | B10

target: T1, CD19; assay: flow cytometry, JeKo-1 cells, BIL03s-AF647 detection, MFI over no-bridge control
Description: (§2) JeKo-1 cells were incubated with different CD19 BRiDGE variants at saturating concentrations. […] The MFI intensity correlates with the number of secondary bound antibodies bound to the CD19 BRiDGE variants that are only detected if they are bound to the JeKo-1 cells. MFI: median fluorescence intensity. BLitz: Bio-Layer interferometry (BLI) technology using HIS-tag identification tips. […] The higher the MFIR, the stronger the binding.

Row | MFIR BIL03 AF647 | Binder
31 | 20.2 | B1
32 | 18.4 | B2
33 | 14.8 | B3
34 | 8.83 | B4
35 | 10.5 | B5
36 | 23.7 | B6
37 | 19.1 | B7
38 | 10.7 | B8
39 | 9.07 | B9
40 | 10.9 | B10

target: T1, CD19; assay: flow cytometry, JeKo-1 cells, bridge at saturating conc., BIL03s-AF647 detection
Description: as §2

Row | MFI Bil03 AF647 | Binder
41 | 9.3 | B1
42 | 8.45 | B2
43 | 6.82 | B3
44 | 4.06 | B4
45 | 4.85 | B5
46 | 10.9 | B6
47 | 8.78 | B7
48 | 4.9 | B8
49 | 4.17 | B9
50 | 5 | B10

target: T1, CD19; assay: flow cytometry, JeKo-1 cells, anti-His-FITC detection, MFI over no-bridge control
Description: as §2

Row | MFIR HisTag FITC | Binder
51 | 3.87 | B1
52 | 3.21 | B2
53 | 3.1 | B3
54 | 3.32 | B4
55 | 3.3 | B5
56 | 3.94 | B6
57 | 3.09 | B7
58 | 3.51 | B8
59 | 3.39 | B9
60 | 3.01 | B10

target: T1, CD19; assay: flow cytometry, JeKo-1 cells, bridge at saturating conc., anti-His-FITC detection
Description: as §2

Row | MFI HisTag FITC | Binder
61 | 2.98 | B1
62 | 2.47 | B2
63 | 2.39 | B3
64 | 2.56 | B4
65 | 2.54 | B5
66 | 3.03 | B6
67 | 2.38 | B7
68 | 2.7 | B8
69 | 2.61 | B9
70 | 2.32 | B10
